According to the supplement of paper PMC10065799, “High-throughput profiling of sequence recognition by tyrosine kinases and SH2 domains using bacterial peptide display” (eLife, 2023):

Experiments:
SHP2-C SH2 = assay: SH2 binding enrichment of the phosphorylated peptide, bacterial display (enrichment ratio); higher = better substrate or ligand; peptides without Tyr show the background
Grb2 SH2 = Grb2 SH2 (UniProt P62993); assay: as above
c-Src SH2 = assay: as above
FGFR1 = FGFR1 (UniProt P11362); assay: phosphorylation enrichment, bacterial display (enrichment ratio); higher = better substrate or ligand; peptides without Tyr show the background
MERTK = MERTK (UniProt Q12866); assay: as above
EPHB2 = EPHB2 (UniProt P29323); assay: as above
c-Src = assay: as above
AncSZ = assay: as above
Jak2 = Jak2 (UniProt O60674); assay: as above
FGFR3 = FGFR3 (UniProt P22607); assay: as above
EPHB1 = EPHB1 (UniProt P54762); assay: as above
Fes = Fes (UniProt P07332); assay: as above
c-Abl (mouse) = assay: as above
Fer (mouse) = assay: as above
Fyn = Fyn (UniProt P06241); assay: as above
Hck = Hck (UniProt P08631); assay: as above
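For SH2 binding enrichment of the phosphorylated peptide, bacterial display in this document: peptide library displayed on the E. coli surface as eCPX fusions, selected cells deep-sequenced, score is each peptide's frequency after selection divided by its frequency in the input.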
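For phosphorylation enrichment, bacterial display in this document: 11-residue human phosphosite peptides and single-mutation variants displayed on the E. coli surface, counted by deep sequencing, each peptide's frequency after selection divided by its frequency in the unselected input library; frequency after pTyr selection over input frequency; kinase dosed for 20-30% of maximal phosphorylation in three min.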

Sequence of Jak2 (O60674 whole entry, looked up): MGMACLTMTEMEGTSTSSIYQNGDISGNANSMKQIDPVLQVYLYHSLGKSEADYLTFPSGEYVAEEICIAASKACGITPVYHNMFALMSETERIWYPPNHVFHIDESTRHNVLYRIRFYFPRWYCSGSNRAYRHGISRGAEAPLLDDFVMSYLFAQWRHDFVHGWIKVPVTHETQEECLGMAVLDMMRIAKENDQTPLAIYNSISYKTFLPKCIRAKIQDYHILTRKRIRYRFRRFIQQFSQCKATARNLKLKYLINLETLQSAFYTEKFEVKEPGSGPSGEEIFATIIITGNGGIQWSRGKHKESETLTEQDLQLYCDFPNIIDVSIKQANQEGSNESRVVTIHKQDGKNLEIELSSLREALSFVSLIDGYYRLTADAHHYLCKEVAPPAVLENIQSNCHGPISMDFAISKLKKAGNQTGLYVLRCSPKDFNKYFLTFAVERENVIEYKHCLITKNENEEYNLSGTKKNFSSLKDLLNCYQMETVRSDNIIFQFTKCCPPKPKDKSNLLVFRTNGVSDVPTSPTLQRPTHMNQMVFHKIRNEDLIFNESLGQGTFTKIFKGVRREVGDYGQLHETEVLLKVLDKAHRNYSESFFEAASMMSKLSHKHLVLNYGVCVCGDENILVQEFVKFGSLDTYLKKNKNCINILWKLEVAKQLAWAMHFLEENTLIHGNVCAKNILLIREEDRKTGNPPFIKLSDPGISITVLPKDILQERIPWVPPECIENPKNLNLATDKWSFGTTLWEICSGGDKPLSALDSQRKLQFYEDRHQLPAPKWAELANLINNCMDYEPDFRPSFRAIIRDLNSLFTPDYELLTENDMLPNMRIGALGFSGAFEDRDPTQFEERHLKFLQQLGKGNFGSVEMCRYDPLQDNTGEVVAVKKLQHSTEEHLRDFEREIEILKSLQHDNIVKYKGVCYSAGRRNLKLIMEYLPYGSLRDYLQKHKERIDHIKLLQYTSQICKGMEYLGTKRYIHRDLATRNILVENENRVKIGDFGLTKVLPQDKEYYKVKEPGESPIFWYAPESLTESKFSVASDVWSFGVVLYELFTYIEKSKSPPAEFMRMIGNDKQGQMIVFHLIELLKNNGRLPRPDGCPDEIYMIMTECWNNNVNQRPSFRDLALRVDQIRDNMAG
Sequence of EPHB1 (P54762 whole entry, looked up): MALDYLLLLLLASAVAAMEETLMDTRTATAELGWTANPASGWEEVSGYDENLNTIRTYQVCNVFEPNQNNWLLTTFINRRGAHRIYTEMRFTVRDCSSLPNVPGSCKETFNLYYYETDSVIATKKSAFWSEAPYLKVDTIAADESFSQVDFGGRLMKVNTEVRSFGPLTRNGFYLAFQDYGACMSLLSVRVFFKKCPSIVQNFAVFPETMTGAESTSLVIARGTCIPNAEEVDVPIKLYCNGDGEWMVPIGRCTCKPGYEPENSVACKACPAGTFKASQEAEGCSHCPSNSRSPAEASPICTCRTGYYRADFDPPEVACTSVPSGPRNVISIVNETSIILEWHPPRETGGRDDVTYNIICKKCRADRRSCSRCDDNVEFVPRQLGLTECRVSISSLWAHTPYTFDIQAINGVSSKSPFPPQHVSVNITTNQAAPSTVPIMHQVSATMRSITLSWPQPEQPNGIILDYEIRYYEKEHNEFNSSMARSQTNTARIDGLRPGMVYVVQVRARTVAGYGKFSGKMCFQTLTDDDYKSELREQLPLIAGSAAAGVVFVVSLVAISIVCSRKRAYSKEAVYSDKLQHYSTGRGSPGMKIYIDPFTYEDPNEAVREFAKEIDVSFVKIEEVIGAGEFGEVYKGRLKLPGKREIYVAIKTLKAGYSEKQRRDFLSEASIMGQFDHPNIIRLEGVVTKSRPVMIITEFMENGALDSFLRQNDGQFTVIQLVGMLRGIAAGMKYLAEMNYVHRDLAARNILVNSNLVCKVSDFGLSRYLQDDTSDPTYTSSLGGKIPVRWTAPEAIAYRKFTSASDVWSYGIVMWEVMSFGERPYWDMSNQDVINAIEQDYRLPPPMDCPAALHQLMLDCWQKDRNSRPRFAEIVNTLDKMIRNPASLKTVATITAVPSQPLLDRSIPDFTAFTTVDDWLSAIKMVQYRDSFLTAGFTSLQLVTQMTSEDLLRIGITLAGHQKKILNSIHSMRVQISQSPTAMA
Sequence of Fyn (P06241 whole entry, looked up): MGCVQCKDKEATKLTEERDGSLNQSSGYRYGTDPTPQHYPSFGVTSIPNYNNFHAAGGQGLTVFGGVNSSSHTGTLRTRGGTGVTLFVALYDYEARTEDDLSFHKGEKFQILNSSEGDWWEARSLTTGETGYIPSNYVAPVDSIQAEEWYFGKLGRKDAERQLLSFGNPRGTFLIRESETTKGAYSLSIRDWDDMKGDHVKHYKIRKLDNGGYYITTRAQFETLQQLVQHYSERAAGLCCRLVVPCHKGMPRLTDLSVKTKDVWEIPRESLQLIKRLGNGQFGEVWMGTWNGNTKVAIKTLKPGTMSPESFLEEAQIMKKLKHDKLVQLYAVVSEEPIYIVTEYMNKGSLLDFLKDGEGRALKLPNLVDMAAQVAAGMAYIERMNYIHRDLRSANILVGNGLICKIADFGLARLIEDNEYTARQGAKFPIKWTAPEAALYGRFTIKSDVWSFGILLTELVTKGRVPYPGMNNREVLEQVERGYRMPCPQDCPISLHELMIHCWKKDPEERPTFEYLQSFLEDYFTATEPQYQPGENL
Sequence of MERTK (Q12866 whole entry, looked up): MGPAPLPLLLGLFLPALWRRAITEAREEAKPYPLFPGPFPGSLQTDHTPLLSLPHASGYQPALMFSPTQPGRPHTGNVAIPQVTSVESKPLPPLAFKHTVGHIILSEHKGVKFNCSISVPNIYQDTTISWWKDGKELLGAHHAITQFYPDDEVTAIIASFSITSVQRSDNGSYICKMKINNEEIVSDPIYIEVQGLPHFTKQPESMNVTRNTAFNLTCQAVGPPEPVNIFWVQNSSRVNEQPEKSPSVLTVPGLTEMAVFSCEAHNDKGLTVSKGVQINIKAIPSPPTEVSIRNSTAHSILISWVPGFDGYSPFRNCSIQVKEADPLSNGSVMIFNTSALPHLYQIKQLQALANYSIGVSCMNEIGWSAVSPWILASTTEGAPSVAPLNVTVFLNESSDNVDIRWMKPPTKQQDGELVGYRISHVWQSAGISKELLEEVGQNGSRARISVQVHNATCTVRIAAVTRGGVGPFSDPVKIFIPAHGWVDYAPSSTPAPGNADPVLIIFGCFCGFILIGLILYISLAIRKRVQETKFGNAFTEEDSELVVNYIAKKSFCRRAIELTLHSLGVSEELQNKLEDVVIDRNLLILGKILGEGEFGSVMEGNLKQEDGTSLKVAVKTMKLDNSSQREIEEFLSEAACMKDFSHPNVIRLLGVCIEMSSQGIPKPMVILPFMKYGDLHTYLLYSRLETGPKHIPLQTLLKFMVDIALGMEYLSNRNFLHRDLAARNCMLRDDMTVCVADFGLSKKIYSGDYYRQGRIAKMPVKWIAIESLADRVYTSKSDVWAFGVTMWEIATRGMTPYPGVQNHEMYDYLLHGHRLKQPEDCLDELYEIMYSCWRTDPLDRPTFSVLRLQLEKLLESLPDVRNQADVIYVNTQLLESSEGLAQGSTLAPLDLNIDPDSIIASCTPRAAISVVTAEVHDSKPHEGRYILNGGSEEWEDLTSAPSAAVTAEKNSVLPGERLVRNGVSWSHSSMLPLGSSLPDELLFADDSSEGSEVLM
Sequence of Hck (P08631 whole entry, looked up, the tested form may be a part): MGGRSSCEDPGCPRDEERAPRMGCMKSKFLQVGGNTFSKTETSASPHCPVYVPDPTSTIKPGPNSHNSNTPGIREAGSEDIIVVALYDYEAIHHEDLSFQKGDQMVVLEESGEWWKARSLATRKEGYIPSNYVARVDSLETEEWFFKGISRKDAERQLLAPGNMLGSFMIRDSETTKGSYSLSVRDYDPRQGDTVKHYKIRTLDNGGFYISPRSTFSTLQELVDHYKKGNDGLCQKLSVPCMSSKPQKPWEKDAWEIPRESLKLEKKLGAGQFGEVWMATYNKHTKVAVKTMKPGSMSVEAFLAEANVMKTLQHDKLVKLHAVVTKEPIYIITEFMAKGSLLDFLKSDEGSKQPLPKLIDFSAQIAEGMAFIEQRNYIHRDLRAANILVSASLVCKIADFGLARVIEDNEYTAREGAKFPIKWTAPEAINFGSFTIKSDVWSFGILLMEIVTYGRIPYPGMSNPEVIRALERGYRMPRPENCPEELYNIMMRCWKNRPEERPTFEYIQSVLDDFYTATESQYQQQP
Sequence of Fes (P07332 whole entry, looked up): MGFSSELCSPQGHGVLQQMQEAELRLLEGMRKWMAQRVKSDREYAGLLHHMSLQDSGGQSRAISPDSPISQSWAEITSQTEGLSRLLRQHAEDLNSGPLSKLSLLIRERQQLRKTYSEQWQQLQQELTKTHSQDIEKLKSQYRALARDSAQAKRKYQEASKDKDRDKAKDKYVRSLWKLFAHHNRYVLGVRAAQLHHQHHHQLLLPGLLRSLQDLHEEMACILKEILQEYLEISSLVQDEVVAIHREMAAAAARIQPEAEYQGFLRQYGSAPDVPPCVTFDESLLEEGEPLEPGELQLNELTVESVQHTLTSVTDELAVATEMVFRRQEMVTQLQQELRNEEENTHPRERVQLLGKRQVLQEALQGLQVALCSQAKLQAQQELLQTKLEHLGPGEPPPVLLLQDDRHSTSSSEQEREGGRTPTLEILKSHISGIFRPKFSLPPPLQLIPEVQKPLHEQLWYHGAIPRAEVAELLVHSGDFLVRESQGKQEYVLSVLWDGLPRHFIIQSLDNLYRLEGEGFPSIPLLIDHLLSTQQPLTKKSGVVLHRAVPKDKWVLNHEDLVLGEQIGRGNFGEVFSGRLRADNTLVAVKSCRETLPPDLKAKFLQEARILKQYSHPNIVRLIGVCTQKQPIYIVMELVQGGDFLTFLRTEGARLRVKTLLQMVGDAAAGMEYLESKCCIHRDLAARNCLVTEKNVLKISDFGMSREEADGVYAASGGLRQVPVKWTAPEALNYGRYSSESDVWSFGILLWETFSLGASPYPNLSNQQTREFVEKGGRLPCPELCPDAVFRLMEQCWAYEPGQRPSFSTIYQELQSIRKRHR

| Sequence | SH2 binding enrichment (SHP2-C SH2) | SH2 binding enrichment (Grb2 SH2) | SH2 binding enrichment (c-Src SH2) | phosphorylation enrichment (FGFR1) | phosphorylation enrichment (MERTK) | phosphorylation enrichment (EPHB2) | phosphorylation enrichment (c-Src) | phosphorylation enrichment (AncSZ) | phosphorylation enrichment (Jak2) | phosphorylation enrichment (FGFR3) | phosphorylation enrichment (EPHB1) | phosphorylation enrichment (Fes) | phosphorylation enrichment (c-Abl (mouse)) | phosphorylation enrichment (Fer (mouse)) | phosphorylation enrichment (Fyn) | phosphorylation enrichment (Hck) |
| --- | --- | --- | --- | --- | --- | --- | --- | --- | --- | --- | --- | --- | --- | --- | --- | --- |
| TLKDVCDDGKF [RPS6KA3_Y483_Y483C_YF] | 0.809 | 1.16 | 0.66 | 0.583 | 0.498 | 0.545 | 0.433 | 1.03 | 0.873 | 0.601 | 0.555 | 1.1 | 0.885 | 0.523 | 0.446 | 0.427 |
| TLLAFYMGNFS [GLB1_Y552_P549L] | 0.805 | 0.835 | 0.464 | 0.435 | 0.625 | 0.661 | 0.98 | 1.18 | 1.59 | 0.839 | 0.943 | 1.49 | 1.06 | 0.559 | 0.408 | 0.62 |
| TLNHQYDYTFH [CSNK1A1_Y292_D297H] | 0.874 | 1.01 | 7.34 | 2.69 | 1.11 | 0.873 | 1.16 | 0.998 | 0.654 | 1.38 | 0.772 | 0.753 | 0.512 | 1.4 | 0.536 | 0.596 |
| TLPAFYMGNFS [GLB1_Y552] | 0.809 | 0.868 | 0.624 | 0.543 | 0.538 | 0.619 | 0.523 | 0.998 | 1.03 | 0.728 | 0.645 | 1.02 | 0.661 | 0.625 | 0.627 | 0.565 |
| TLQTMYGCDVG [HLA-B_Y123_S121T] | 0.729 | 0.854 | 0.545 | 0.556 | 0.647 | 0.589 | 0.68 | 1.13 | 0.979 | 0.772 | 0.909 | 1.15 | 0.849 | 0.838 | 0.554 | 0.579 |
| TNRSVYFKPSL [NUP153_Y382] | 2.21 | 0.948 | 0.588 | 0.448 | 0.455 | 0.369 | 0.511 | 0.667 | 0.66 | 0.447 | 0.453 | 0.595 | 0.556 | 0.433 | 0.421 | 0.551 |
| TNYCLYLRSLE [MTM1_Y71_R69C] | 2 | 1.18 | 0.696 | 0.814 | 1.19 | 1.52 | 0.887 | 1.67 | 1.29 | 1 | 1.93 | 1.46 | 0.883 | 0.614 | 0.545 | 0.668 |
| TQIGQYGNGLK [MORC2_Y100] | 0.661 | 0.991 | 0.509 | 0.434 | 0.316 | 0.258 | 0.272 | 0.475 | 0.358 | 0.345 | 0.29 | 0.432 | 0.339 | 0.387 | 0.352 | 0.421 |
| TRVMEYISCLD [CLTCL1_Y1043_R1046C] | 0.478 | 0.626 | 0.545 | 0.599 | 0.507 | 0.749 | 0.457 | 1.18 | 0.995 | 0.843 | 0.661 | 1.18 | 1.08 | 0.592 | 0.521 | 0.647 |
| TSPKSYPSQKH [CAP2_Y316] | 0.433 | 0.823 | 0.538 | 0.357 | 0.44 | 0.359 | 0.466 | 0.613 | 0.463 | 0.497 | 0.364 | 0.526 | 0.53 | 0.45 | 0.434 | 0.363 |
| TSQSQYSSFRE [CCDC170_Y323_F324S] | 0.779 | 1.1 | 0.663 | 0.63 | 0.57 | 0.77 | 1.88 | 0.604 | 0.687 | 0.531 | 0.51 | 0.626 | 0.607 | 0.523 | 1.37 | 1.14 |
| TSYSGYRYHRH [NKAPL_Y94] | 1.24 | 0.985 | 0.649 | 0.407 | 0.382 | 0.42 | 0.555 | 0.52 | 0.439 | 0.433 | 0.536 | 0.501 | 0.46 | 0.418 | 0.891 | 0.628 |
| TVEDHDYEGGI [TKT_Y563_Y563D] | 1.26 | 1.15 | 0.651 | 0.481 | 0.49 | 0.583 | 0.526 | 1.08 | 0.963 | 0.727 | 0.543 | 1.17 | 0.654 | 0.559 | 0.478 | 0.5 |
| TVLWQYTGTRP [UGT1A1_Y337_R336Q] | 0.793 | 1.01 | 0.455 | 0.366 | 0.345 | 0.43 | 0.22 | 0.903 | 1.01 | 0.645 | 0.539 | 1.04 | 0.436 | 0.419 | 0.398 | 0.499 |
| TYGVVYRAKDK [CDK11B_Y453] | 0.718 | 1.11 | 0.491 | 0.583 | 1.31 | 0.59 | 8.45 | 0.595 | 0.525 | 0.42 | 0.75 | 1.16 | 0.531 | 0.733 | 11.6 | 9.58 |
| TYVVLYDAELT [ERCC4_Y581_R576T] | 1.36 | 1.64 | 1.53 | 1.79 | 2.56 | 2.67 | 0.795 | 1.37 | 1.05 | 1.52 | 4.46 | 1.16 | 0.67 | 0.515 | 0.87 | 0.891 |
| VAMDDYLKNVM [LRRK2_Y707] | 0.648 | 1.01 | 0.418 | 0.493 | 0.51 | 0.409 | 0.409 | 0.903 | 0.831 | 0.59 | 0.517 | 0.956 | 0.659 | 0.333 | 0.449 | 0.418 |

| Sequence | SH2 binding enrichment (SHP2-C SH2) | SH2 binding enrichment (Grb2 SH2) | SH2 binding enrichment (c-Src SH2) | phosphorylation enrichment (FGFR1) | phosphorylation enrichment (MERTK) | phosphorylation enrichment (EPHB2) | phosphorylation enrichment (c-Src) | phosphorylation enrichment (AncSZ) | phosphorylation enrichment (Jak2) | phosphorylation enrichment (FGFR3) | phosphorylation enrichment (EPHB1) | phosphorylation enrichment (Fes) | phosphorylation enrichment (c-Abl (mouse)) | phosphorylation enrichment (Fer (mouse)) | phosphorylation enrichment (Fyn) | phosphorylation enrichment (Hck) |
| --- | --- | --- | --- | --- | --- | --- | --- | --- | --- | --- | --- | --- | --- | --- | --- | --- |
| VCRHNYGVVES [HLA-DRB1_Y112_Y107V] | 0.801 | 0.828 | 1.13 | 0.547 | 0.484 | 1.5 | 0.361 | 0.768 | 0.659 | 0.566 | 0.82 | 0.793 | 0.543 | 0.428 | 0.398 | 0.484 |
| VDSLRYIYPKL [EIF2B3_Y92_A87V] | 1.43 | 0.88 | 10.7 | 0.453 | 0.489 | 0.506 | 0.424 | 0.757 | 0.733 | 0.655 | 0.561 | 0.844 | 0.553 | 0.532 | 0.48 | 0.524 |
| VDTAMYATMQR [TPO_Y55] | 0.764 | 0.878 | 1.55 | 0.518 | 0.764 | 0.672 | 3.92 | 0.697 | 0.531 | 0.507 | 0.568 | 0.706 | 0.705 | 0.519 | 3.02 | 5.09 |
| VEDQFYCVDCF [FHL1_Y208_YF] | 1.64 | 1.71 | 1.32 | 0.703 | 5.12 | 0.697 | 1.73 | 1.61 | 1.35 | 0.863 | 0.748 | 1.29 | 0.867 | 0.874 | 1.44 | 0.926 |
| VEFAKYGSLRG [RET_Y809_YF] | 0.82 | 0.817 | 0.584 | 0.417 | 0.397 | 0.458 | 0.437 | 0.629 | 0.541 | 0.469 | 0.403 | 0.664 | 0.622 | 0.4 | 0.528 | 0.488 |
| VEYAKYGSLRG [RET_Y809] | 2.61 | 0.461 | 0.583 | 0.349 | 0.473 | 0.409 | 1.56 | 0.544 | 0.335 | 0.47 | 0.441 | 0.552 | 0.824 | 0.395 | 1.21 | 0.758 |
| VFDMLYQVANL [USP24_Y1087_L1089V] | 1 | 1.16 | 0.769 | 0.943 | 2.78 | 5.28 | 4.11 | 1.79 | 0.863 | 0.923 | 2.75 | 1.06 | 2.06 | 11.7 | 2.92 | 4.24 |
| VGTKRYRAPEV [ACVRL1_Y375_M376R] | 0.861 | 0.892 | 0.528 | 0.298 | 0.339 | 0.338 | 0.335 | 0.443 | 0.351 | 0.363 | 0.308 | 0.565 | 0.499 | 0.364 | 0.379 | 0.305 |
| VGTTAYVAPEA [IRAK4_Y354_M355V] | 0.76 | 0.938 | 0.605 | 0.412 | 0.427 | 0.445 | 0.433 | 0.888 | 0.79 | 0.507 | 0.558 | 0.911 | 0.653 | 0.424 | 0.392 | 0.41 |
| VHHLVYHHHHH [CACNA1H_Y519] | 1.36 | 1.28 | 1.15 | 0.55 | 0.52 | 0.696 | 0.602 | 0.777 | 1.66 | 1.23 | 0.725 | 1.99 | 0.963 | 0.896 | 0.546 | 0.65 |
| VHNLDYFKQTT [FGFR3_Y647_K650Q_YF] | 0.573 | 0.795 | 0.449 | 0.743 | 0.434 | 0.545 | 0.542 | 0.767 | 1.31 | 0.819 | 0.56 | 0.958 | 0.602 | 0.48 | 0.652 | 0.525 |
| VHNLDYYKETT [FGFR3_Y647_K650E] | 0.585 | 0.702 | 0.564 | 0.789 | 0.39 | 0.497 | 0.367 | 0.903 | 0.714 | 0.769 | 0.452 | 0.824 | 0.577 | 0.439 | 0.421 | 0.456 |
| VHNLNYYKKTT [FGFR3_Y647_D646N] | 0.746 | 1.04 | 0.539 | 0.447 | 0.528 | 0.449 | 0.487 | 0.506 | 0.728 | 0.665 | 0.429 | 0.682 | 0.671 | 0.32 | 0.435 | 0.464 |
| VHYLVYHHHHH [CACNA1H_Y519_H516Y] | 1.45 | 0.985 | 1 | 0.7 | 0.773 | 0.666 | 0.587 | 1.17 | 1.49 | 1.07 | 0.687 | 2.17 | 1.4 | 0.678 | 0.537 | 0.632 |
| VKMLPYTEVTR [GDI1_Y93_L92P] | 0.863 | 0.988 | 2.9 | 0.416 | 0.494 | 0.431 | 0.4 | 0.555 | 0.573 | 0.49 | 0.437 | 0.717 | 0.492 | 0.282 | 0.368 | 0.45 |
| VLAAQYTTVGR [SGSH_Y240_D235V] | 2.77 | 0.953 | 5.28 | 0.352 | 0.421 | 0.307 | 0.445 | 0.551 | 0.426 | 0.48 | 0.503 | 0.598 | 0.514 | 0.394 | 0.367 | 0.543 |
